This note sets out measurements from paper PMC11075285 (2024).

B1: hIL-6Rα on hIL-6Rα-transfected HEK293T cells (receptor)
chain: LAPRRCPAQEVARGVLTSLPGDSVTLTCPGVEPEDNATVHWVLRKPAAGSHPSRWAGMGRRLLLRSVQLHDSGNYSCYRAGRPAGTVHLLVDVPPEEPQLSCFRKSPLSNVVCEWGPRSTPSLTTKAVLLVRKFQNSPAEDFQEPCQYSQESQKFSCQLAVPEGDSSFYIVSMCVASSVGSKFSKTQTFQGCGILQPDPPANITVTAVARNPRWLSVTWQDPHSWNSSFYRLRFELRYRAERSKTFTTWMVKDLQHHCVIHDAWSGLRHVVQLRAQEEFGQGEWSEWSPEAMGTPWTESRSPPAENEVSTPMQALTTNKDDDNILFRDSANATSLPVQDSSSVPLPTFLVAGGSLAFGTLLCIAIVLRFKKTWKLRALKEGKTSMHPPYSLGQLVPERPRPTPVLVPLISPPVSPSSLGSDNTSSHNRPDARDPRSPYDISNTDYFFPR
For the molecule B1, the Kd with NEF172 came to 10.9 nM; with NEF108, 5.3 nM; with NEF163 it was 3.5 nM.
